Data published in paper PMC2639635, “The Structure of Phosphorylase Kinase Holoenzyme at 9.9 Å Resolution and Location of the Catalytic Subunit and the Substrate Glycogen Phosphorylase” (Structure(London, England:1993), 2009).

T1: phosphorylase kinase α subunit (rabbit (endogenous in skeletal muscle), UniProt P18688 1-1237)
T1 construct: phosphorylase kinase α subunit, regulatory, skeletal muscle; printed as 138 kDa, 1237 amino acids; In the aged preparation used for Superdex 200 gel filtration the α subunit may have been partly proteolysed; source: purified from rabbit fast-twitch skeletal muscle as part of the PhK holoenzyme
T1 sequence (looked up): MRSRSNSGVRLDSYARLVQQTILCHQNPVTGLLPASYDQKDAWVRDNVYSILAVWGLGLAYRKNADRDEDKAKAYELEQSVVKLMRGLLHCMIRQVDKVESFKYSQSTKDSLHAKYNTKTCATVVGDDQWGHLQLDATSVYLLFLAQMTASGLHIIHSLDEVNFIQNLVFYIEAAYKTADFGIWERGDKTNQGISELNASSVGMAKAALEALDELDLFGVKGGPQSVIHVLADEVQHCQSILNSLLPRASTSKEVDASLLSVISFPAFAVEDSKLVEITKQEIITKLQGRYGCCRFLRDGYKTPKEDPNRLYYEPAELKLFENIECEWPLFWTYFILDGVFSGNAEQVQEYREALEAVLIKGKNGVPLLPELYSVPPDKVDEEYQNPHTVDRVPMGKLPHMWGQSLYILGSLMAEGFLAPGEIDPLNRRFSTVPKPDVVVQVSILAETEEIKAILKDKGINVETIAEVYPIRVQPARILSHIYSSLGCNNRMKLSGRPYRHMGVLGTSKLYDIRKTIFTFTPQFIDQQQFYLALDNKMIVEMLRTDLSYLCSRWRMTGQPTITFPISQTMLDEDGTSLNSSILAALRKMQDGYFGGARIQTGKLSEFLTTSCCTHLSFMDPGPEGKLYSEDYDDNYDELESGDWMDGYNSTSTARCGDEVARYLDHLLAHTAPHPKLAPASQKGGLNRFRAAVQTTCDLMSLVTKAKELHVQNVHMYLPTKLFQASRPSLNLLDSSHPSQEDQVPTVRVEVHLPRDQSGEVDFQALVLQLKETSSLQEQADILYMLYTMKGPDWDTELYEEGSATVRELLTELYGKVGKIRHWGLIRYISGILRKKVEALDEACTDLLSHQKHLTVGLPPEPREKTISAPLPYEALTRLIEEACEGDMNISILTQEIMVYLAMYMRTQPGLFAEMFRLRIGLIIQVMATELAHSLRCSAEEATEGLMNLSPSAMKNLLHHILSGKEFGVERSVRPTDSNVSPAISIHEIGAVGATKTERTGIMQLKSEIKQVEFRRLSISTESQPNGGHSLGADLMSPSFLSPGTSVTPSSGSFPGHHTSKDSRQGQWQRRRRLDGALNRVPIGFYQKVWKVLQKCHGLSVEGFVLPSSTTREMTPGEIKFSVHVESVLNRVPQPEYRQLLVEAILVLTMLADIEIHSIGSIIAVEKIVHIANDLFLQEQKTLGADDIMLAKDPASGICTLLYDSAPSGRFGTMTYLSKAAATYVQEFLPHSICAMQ

B1: phosphorylase kinase β subunit (natural protein, rabbit (endogenous in skeletal muscle), UniProt P12798 1-1093, looked up)
chain: MAGATGLMAEVSWKVLERRARTKRSGSVYEPLKSINLPRPDNETLWDKLDYYYKIVKSTLLLYQSPTTGLFPTKTCGGDQTAKIHDSLYCAAGAWALALAYRRIDDDKGRTHELEHSAIKCMRGILYCYMRQADKVQQFKQDPRPTTCLHSLFNVHTGDELLSYEEYGHLQINAVSLYLLYLVEMISSGLQIIYNTDEVSFIQNLVFCVERVYRVPDFGVWERGSKYNNGSTELHSSSVGLAKAALEAINGFNLFGNQGCSWSVIFVDLDAHNRNRQTLCSLLPRESRSHNTDAALLPCISYPAFALDDDVLYNQTLDKVIRKLKGKYGFKRFLRDGYRTSLEDPKRRYYKPAEIKLFDGIECEFPIFFLYMMIDGVFRGNPKQVKEYQDLLTPVLHQTTEGYPVVPKYYYVPADFVEYEKRNPGSQKRFPSNCGRDGKLFLWGQALYIIAKLLADELISPKDIDPVQRYVPLQNQRNVSMRYSNQGPLENDLVVHVALVAESQRLQVFLNTYGIQTQTPQQVEPIQIWPQQELVKAYFHLGINEKLGLSGRPDRPIGCLGTSKIYRILGKTVVCYPIIFDLSDFYMSQDVLLLIDDIKNALQFIKQYWKMHGRPLFLVLIREDNIRGSRFNPMLDMLAALKNGMIGGVKVHVDRLQTLISGAVVEQLDFLRISDTEELPEFKSFEELEPPKHSKVKRQSSTSNAPELEQQPEVSVTEWRNKPTHEILQKLNDCSCLASQTILLGILLKREGPNFITQEGTVSDHIERLYRRAGSKKLWLAVRYGAAFTQKFSSSIAPHITTFLVHGKQVTLGAFGHEEEVISNPLSPRVIKNIIYYKCNTHDEREAVIQQELVIHIGWIISNNPELFSGMLKIRIGWIIHAMEYELQIRSGDKPAKDLYQLSPSEVKQLLLDILQPQQNGRCWLNKRQIDGSLNRTPTGFYDRVWQILERTPNGIIVAGKHLPQQPTLSDMTMYEMNFSLLVEDMLGNIDQPKYRQIVVELLMVVSIVLERNPELEFQDKVDLDKLVKEAFHEFQKDESRLKEIEKQDDMTSFYNTPPLGKRGTCSYLTKVVMNLLLEGEVKPSNEDSCLVS
notes: phosphorylase kinase β subunit, regulatory; printed as 125 kDa, 1092 amino acids; source: purified from rabbit fast-twitch skeletal muscle as part of the PhK holoenzyme

Columns and labels:
Conditions in all cases: both partners purified
[1] = biological target: T1, phosphorylase kinase α subunit; assay: SEC; analytical Superdex 200 gel filtration of the PhK preparation several months after purification; fractions analysed by SDS-PAGE with Coomassie staining; subunits co-purified as the native complex
[2] = biological target: B1; assay: cryo-EM structure; PhK holoenzyme alone, subunits co-purified as the native complex from muscle; 100 mM NaCl, 0.3 mM CaCl2, 5 mM MgCl2, 50 mM HEPES pH 8.2; single-particle reconstruction at 9.9 Å; PhKγt (PDB 2PHK) fitted as a rigid body
[3] = biological target: T2, phosphorylase kinase δ subunit (intrinsic calmodulin) (rabbit (endogenous in skeletal muscle), UniProt P62160 1-149); assay: as above
T2 construct: phosphorylase kinase δ subunit, the intrinsic calmodulin; printed as 16.7 kDa, 148 amino acids; also called δ-calmodulin subunit; calmodulin-δ-subunit; source: purified from rabbit fast-twitch skeletal muscle as part of the PhK holoenzyme

[4] = biological target: T1, phosphorylase kinase α subunit; assay: as above

binding result [1] | binding result [2] | binding result [3] | binding result [4] | Binder
binds |  |  |  | B1
 | binds | binds | binds | phosphorylase kinase γ subunit (catalytic subunit) (natural protein, phosphorylase kinase γ subunit, catalytic; also called γ catalytic subunit; γ kinase subunit; source: purified from rabbit fast-twitch skeletal muscle as part of the PhK holoenzyme) not shown
